According to the supplement of paper PMC7125110:
± gives the standard error. For some of these results: This sample holds only a part of the variants without activity.

B1: glmS ribozyme (parent)
chain: AUAAAAGCGCCAGAACUACAGAAAUGUAGUUGACGAGGAGGAGGUUUAUCGAAUUUUCGGCGGAUGCCUCCAAA

Assays:
Details in all cases: with glucosamine-6-phosphate
[1] = variants of: B1; assay: self-cleavage kobs at 40 uM GlcN6P; higher = faster cleavage; RNA array
Summary of the method: (§1)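 Barcoded ribozyme variants, transcribed in situ by E. coli RNA polymerase on sequenced MiSeq chips, were followed via a hybridised Cy3 probe at 37 °C. Glucosamine-6-phosphate ranged from 40 μM to 10 mM in HEPES/KCl/Mg(OAc)2 buffer. kobs came from decay fits to per-tile medians, and kcat and KM from weighted Michaelis–Menten fits.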

[2] = variants of: B1; assay: self-cleavage kobs at 10000 uM GlcN6P; higher = faster cleavage; RNA array
Summary of the method: as §1

[3] = variants of: B1; assay: kcat; higher = faster cleavage; RNA array
Summary of the method: as §1

[4] = variants of: B1; assay: self-cleavage kobs at 160 uM GlcN6P; higher = faster cleavage; RNA array
Summary of the method: as §1

[5] = variants of: B1; assay: KM; higher = weaker cofactor use; RNA array
Summary of the method: as §1

[6] = variants of: B1; assay: self-cleavage kobs at 640 uM GlcN6P; higher = faster cleavage; RNA array
Summary of the method: as §1

[7] = variants of: B1; assay: self-cleavage kobs at 2500 uM GlcN6P; higher = faster cleavage; RNA array
Summary of the method: as §1

Variant	self-cleavage kobs at 40 uM GlcN6P [1]	self-cleavage kobs at 10000 uM GlcN6P [2]	kcat [3]	self-cleavage kobs at 160 uM GlcN6P [4]	KM [5]	self-cleavage kobs at 640 uM GlcN6P [6]	self-cleavage kobs at 2500 uM GlcN6P [7]
C10U C58A C68A	< 1e-05 s⁻¹	< 1e-05 s⁻¹					
A12U G29A A39G A53U	0.000581 ± 0.00016 s⁻¹	0.0117 ± 0.0041 s⁻¹					
A36G C70G			1.29e-05 ± 3e-06 s⁻¹	< 1e-05 s⁻¹			
C8G A15U U55C G60A		< 1e-05 s⁻¹	< 1e-05 s⁻¹				
A15C A42G	0.000206 ± 3.8e-05 s⁻¹	0.00721 ± 0.0015 s⁻¹	0.00745 ± 0.00078 s⁻¹	0.000843 ± 0.00038 s⁻¹	1450 ± 220 µM	0.00216 ± 0.00062 s⁻¹	0.00411 ± 0.001 s⁻¹
G41U U65C	< 1e-05 s⁻¹	2.23e-05 ± 7.2e-06 s⁻¹		< 1e-05 s⁻¹			
A39U G51U C67U	< 1e-05 s⁻¹	< 1e-05 s⁻¹		< 1e-05 s⁻¹		< 1e-05 s⁻¹	< 1e-05 s⁻¹
U31A C67A	0.000109 ± 1.4e-05 s⁻¹	0.00388 ± 0.00061 s⁻¹		0.000473 ± 8.4e-05 s⁻¹		0.000764 ± 0.00012 s⁻¹	
A42G A53G	0.00144 ± 0.00031 s⁻¹	0.00932 ± 0.0024 s⁻¹		0.00422 ± 0.0013 s⁻¹	248 ± 95 µM	0.00893 ± 0.0025 s⁻¹	0.0414 ± 0.018 s⁻¹
A14C U49G		9.07e-05 ± 1.3e-05 s⁻¹	0.000151 ± 5.2e-06 s⁻¹		6690 ± 570 µM		
A39G U65G C67G	0.000107 ± 2.4e-05 s⁻¹	0.00497 ± 0.0012 s⁻¹					
G44U A52C	< 1e-05 s⁻¹	< 1e-05 s⁻¹		< 1e-05 s⁻¹		< 1e-05 s⁻¹	< 1e-05 s⁻¹
G9A C34G	< 1e-05 s⁻¹	< 1e-05 s⁻¹		< 1e-05 s⁻¹			< 1e-05 s⁻¹
C34U A42U					70.4 ± 29 µM		
U30G A52G		0.000388 ± 4.4e-05 s⁻¹	0.000498 ± 6.7e-05 s⁻¹	4.03e-05 ± 2e-05 s⁻¹	2430 ± 620 µM	9.63e-05 ± 1.4e-05 s⁻¹	0.00033 ± 5.9e-05 s⁻¹
C8U G37A C58G			< 1e-05 s⁻¹				
A14C U57C U69C	< 1e-05 s⁻¹						
U30G G59C	< 1e-05 s⁻¹	< 1e-05 s⁻¹				< 1e-05 s⁻¹	
A39C U55G	0.000197 ± 7e-05 s⁻¹			0.000315 ± 8.7e-05 s⁻¹		0.00104 ± 0.00022 s⁻¹	
C50G G51A G59A	< 1e-05 s⁻¹						
C58A C68G			3.84e-05 ± 1.3e-05 s⁻¹	4.34e-05 ± 1.2e-05 s⁻¹		6.18e-05 ± 1.1e-05 s⁻¹	4.14e-05 ± 1.2e-05 s⁻¹
